Experimental data reported in the supplement of paper PMC12667976.
± gives the standard error.

B1: library; numbered along this chain (parent)
chain: MATDAALRRLLRLHRTEIAVAVDSAFPLLHALADHDVVPEDKFQETLHLKEKEGCPQAFHALLSWLLTQDSTAILDFWRVLFKDYNLERYGRLQPILDSFPKDVDLSQPRKGRKPPAVPKALVPPPRLPTKRKASEEARAAAPAALTPRGTASPGSQLKAKPPKKPESSAEQQRLPLGNGIQTMSASVQRAVAMSSGDVPGARGAVEGILIQQVFESGGSKKCIQVGGEFYTPSKFEDSGSGKNKARSSSGPKPLVRAKGAQGAAPGGGEARLGQQGSVPAPLALPSDPQLHQKNEDECAVCRDGGELICCDGCPRAFHLACLSPPLREIPSGTWRCSSCLQATVQEVQPRAEEPRPQEPPVETPLPPGLRSAGEEVRGPPGEPLAGMDTTLVYKHLPAPPSAAPLPGLDSSALHPLLCVGPEGQQNLAPGARCGVCGDGTDVLRCTHCAAAFHWRCHFPAGTSRPGTGLRCRSCSGDVTPAPVEGVLAPSPARLAPGPAKDDTASHEPALHRDDLESLLSEHTFDGILQWAIQSMARPAAPFPS

Variants of: B1
Assay: AIRE transcriptional activation functional score (insulin promoter-GFP; nonsense median 0, synonymous median 1) (normalised score); higher = higher AIRE activity (more reporter activation)
Conditions: with insulin promoter-GFP reporter in HEK293
Procedure, shortened: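 Functional scores come from comparing select with non-select enrichment of each variant and subtracting wild type. Codon-optimized AIRE NNN-codon libraries across three regions were integrated via Bxb1 recombinase into HEK293 landing-pad cells with an insulin core promoter-GFP reporter, and integrants sorted at day 7 were expanded 7 days before top 10% GFP and unselected populations were tile-sequenced. Variants needed 10 counts per million in non-select, and values were rescaled to nonsense median 0 and synonymous median 1 before averaging over biological replicates.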

In order of rising “AIRE transcriptional activation functional score” value:
1. D41H  -1.75 ± 0.19
2. F59Q  -1.19 ± 0.16
3. R89P  -1.08 ± 0.27
4. W78N  -0.791 ± 0.45
5. L529M  -0.503 ± 0.086
6. L29F  -0.401 ± 0.47
7. W65Y  -0.365 ± 0.21
8. T524M  -0.346 ± 0.17
9. K50P  -0.341 ± 0.68
10. P282N  -0.335 ± 0.22
11. Y394Q  -0.333 ± 0.14
12. D23N  -0.303 ± 1.1
13. Q108H  -0.231 ± 0.16
14. D70A  -0.203 ± 0.38
15. R89L  -0.165 ± 0.72
16. C472A  -0.164 ± 0.22
17. N86R  -0.161 ± 0.52
18. R15H  -0.146 ± 0.19
19. V38F  -0.138 ± 0.2
20. A58G  -0.107 ± 0.23
21. L66F  -0.101 ± 0.092
22. K245T  -0.0733 ± 0.24
23. S24Q  -0.0656 ± 0.18
24. D36L  -0.0069 ± 0.61
25. G208N  0.00613 ± 0.11
26. S535V  0.00974 ± 0.14
27. L397M  0.0442 ± 0.18
28. E517I  0.0464 ± 0.059
29. V206Q  0.0809 ± 0.14
30. S474I  0.0981 ± 0.21
31. F59S  0.2 ± 0.44
32. S185E  0.209 ± 0.22
33. A205F  0.213 ± 0.12
34. M536P  0.215 ± 0.085
35. W531Q  0.225 ± 0.11
36. V20L  0.278 ± 0.32
37. A121T  0.322 ± 0.49
38. Y90A  0.366 ± 0.75
39. K235E  0.408 ± 0.17
40. A532Y  0.432 ± 0.23
41. T468E  0.46 ± 0.12
42. S535P  0.472 ± 0.33
43. L520V  0.478 ± 0.27
44. A202W  0.488 ± 0.049
45. M536W  0.508 ± 0.068
46. Q293I  0.523 ± 0.12
47. V206C  0.542 ± 0.22
48. P282E  0.555 ± 0.085
49. F236Y  0.564 ± 0.59
50. L177N  0.575 ± 0.061
51. G431R  0.579 ± 0.19
52. H396S  0.606 ± 0.35
53. C437D  0.609 ± 0.19
54. T68V  0.624 ± 0.46
55. F230Q  0.665 ± 0.046
56. D103Y  0.675 ± 0.25
57. C419I  0.681 ± 0.19
58. D312I  0.684 ± 0.33
59. S249F  0.707 ± 0.2
60. F215P  0.715 ± 0.15
61. V279I  0.721 ± 0.43
62. K50V  0.73 ± 0.45
63. R336I  0.734 ± 0.31
64. Q44V  0.735 ± 0.82
65. V214I  0.735 ± 0.18
66. G242K  0.747 ± 0.2
67. S278E  0.763 ± 0.2
68. P119S  0.765 ± 0.48
69. T68C  0.77 ± 0.18
70. L406D  0.772 ± 0.16
71. A482Q  0.773 ± 0.13
72. F230L  0.774 ± 0.16
73. R513C  0.777 ± 0.16
74. P460Q  0.787 ± 0.069
75. D36G  0.788 ± 0.32
76. A541P  0.791 ± 0.2
77. R149C  0.794 ± 0.24
78. L428T  0.817 ± 0.26
79. G313A  0.829 ± 0.24
80. K501P  0.836 ± 0.36
81. Q189N  0.838 ± 0.34
82. L177A  0.839 ± 0.37
83. A281P  0.84 ± 0.2
84. F543D  0.845 ± 0.096
85. G274T  0.86 ± 0.15
86. G150P  0.879 ± 0.17
87. R513L  0.882 ± 0.31
88. G498I  0.895 ± 0.12
89. V199E  0.905 ± 0.22
90. P125K  0.907 ± 0.37
91. G112H  0.912 ± 0.48
92. L370K  0.92 ± 0.34
93. L285S  0.921 ± 0.25
94. A121R  0.922 ± 0.42
95. Q342L  0.929 ± 0.18
96. C314D  0.933 ± 0.061
97. R303E  0.933 ± 0.23
98. P176T  0.957 ± 0.38
99. A321L  0.961 ± 0.3
100. S287H  0.964 ± 0.16
101. V484Y  0.975 ± 0.11
102. S412C  0.988 ± 0.22
103. V345N  0.989 ± 0.34
104. I224E  1 ± 0.19
105. E347A  1 ± 0.18
106. A404R  1.01 ± 0.27
107. S474Q  1.02 ± 0.055
108. R149E  1.02 ± 0.19
109. A141R  1.02 ± 0.51
110. G180K  1.02 ± 0.72
111. P282G  1.03 ± 0.24
112. V484T  1.04 ± 0.26
113. R336S  1.04 ± 0.2
114. E383R  1.05 ± 0.17
115. S324N  1.08 ± 0.064
116. G150I  1.08 ± 0.33
117. E216G  1.09 ± 0.12
118. P109S  1.1 ± 0.75
119. A281H  1.11 ± 0.085
120. P200L  1.12 ± 0.2
121. R456Q  1.13 ± 0.12
122. S241D  1.13 ± 0.051
123. A138F  1.13 ± 0.21
124. Q172D  1.14 ± 0.11
125. D103C  1.14 ± 0.27
126. E354R  1.14 ± 0.2
127. N179E  1.14 ± 0.4
128. E347P  1.14 ± 0.2
129. P509V  1.14 ± 0.23
130. R465F  1.15 ± 0.032
131. T72N  1.15 ± 0.55
132. A281R  1.15 ± 0.39
133. P460M  1.17 ± 0.068
134. S324Y  1.18 ± 0.15
135. R336C  1.2 ± 0.12
136. P509I  1.21 ± 0.37
137. A170C  1.24 ± 0.41
138. G274K  1.24 ± 0.055
139. A141D  1.25 ± 0.18
140. F459N  1.27 ± 0.12
141. T390F  1.29 ± 0.24
142. A321P  1.3 ± 0.24
143. K243M  1.31 ± 0.057
144. F318Q  1.31 ± 0.16
145. V118M  1.31 ± 0.18
146. P365F  1.36 ± 0.22
147. R139K  1.37 ± 0.33
148. G379S  1.37 ± 0.097
149. R336P  1.38 ± 0.26
150. P282V  1.38 ± 0.26
151. F318G  1.39 ± 0.15
152. A482D  1.42 ± 0.057
153. A413L  1.43 ± 0.2
154. Q94A  1.44 ± 0.23
155. K235V  1.45 ± 0.27
156. G112W  1.45 ± 0.18
157. P325E  1.45 ± 0.17
158. G313H  1.5 ± 0.058
159. C337A  1.51 ± 0.18
160. R139F  1.51 ± 0.4
161. P280F  1.58 ± 0.24
162. D41A  1.59 ± 0.35
163. R538I  1.65 ± 0.075
164. G269W  1.81 ± 0.065
165. P176Y  1.88 ± 0.23
166. Q94M  1.89 ± 0.18
167. G155M  2.34 ± 0.066
